Tests used:
rabx5_human RABGEF1 [1] = biological target: rabx5_human RABGEF1 (UniProt Q9UJ41)
rabx5_human RABGEF1 [2] = biological target: rabx5_human RABGEF1 (UniProt Q9UJ41); remark: listed apart in the source

Row | Substance | effect of a mutation on the interaction (rabx5_human RABGEF1 [1]) | effect of a mutation on the interaction (rabx5_human RABGEF1 [2])
1 | Polyubiquitin-B (Homo sapiens) (from UniProt P0CG47) I44A | decreasing interaction | 
2 | Polyubiquitin-B (Homo sapiens) (from UniProt P0CG47) D58A |  | decreasing interaction

Reference: IntAct's records for PubMed 16499958
